From publication PMC4162605

System: P49302
Test: […] (DSC); […] (40 mM tris, pH 8.0, 0.5 M ([…]; 1 mg/mL; […]) dissociation
Settings: other: differential scanning calorimetry (DSC)

In the case of “unmodified murine polyomavirus VP1 capsomere, as used for DSC”, the dHm of capsomere dissociation (first DSC endotherm) is reported as 87.6 kcal/mol.
